In article PMC8809517, “Cofactor-independent RNA editing by a synthetic S-type PPR protein”:
Changes are numbered by the printed parent chain.

T1: GFP-9S library array, motif 4 ND N98F;D124P (synthetic construct, N98F;D124P)
T1 chain: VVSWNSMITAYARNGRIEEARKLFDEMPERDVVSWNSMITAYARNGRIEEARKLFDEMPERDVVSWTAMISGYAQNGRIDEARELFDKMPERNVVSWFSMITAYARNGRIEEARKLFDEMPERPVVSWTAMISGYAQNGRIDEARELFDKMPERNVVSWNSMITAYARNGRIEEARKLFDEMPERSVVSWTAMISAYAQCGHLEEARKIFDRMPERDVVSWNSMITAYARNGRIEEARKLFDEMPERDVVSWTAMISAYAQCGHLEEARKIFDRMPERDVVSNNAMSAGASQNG

T2: GFP-9S library array, motif 4 ND N98W;D124T (synthetic construct, N98W;D124T)
T2 chain: T1 chain with F98W, P124T

T3: GFP-9S library array, motif 4 ND N98T;D124A (synthetic construct, N98T;D124A)
T3 chain: T1 chain with F98T, P124A

T4: GFP-9S library array, motif 4 ND N98Y;D124T (synthetic construct, N98Y;D124T)
T4 chain: T1 chain with F98Y, P124T

T5: GFP-9S library array, motif 4 ND N98T;D124V (synthetic construct, N98T;D124V)
T5 chain: T1 chain with F98T, P124V

B1: Cy5-rpoA (ssRNA)
RNA: AUUACACGUGA
B2: IR-rpoA-A (ssRNA)
RNA: AUUAAACGUGA
B3: IR-rpoA-U (ssRNA)
RNA: AUUAUACGUGA
B4: Cy5-rpoA-G (ssRNA)
RNA: AUUAGACGUGA

Tests used:
Test in all cases: high-throughput RNA pulldown from lysate on Ni-NTA beads; HRP: 50 mM Tris pH 8, 150 mM NaCl, 1 mM beta-mercaptoethanol, 50 ug/ml BSA, 3 ug/ml yeast RNA, 0.5% heparin; ITC and FP: Tris pH 8, 200 mM KCl, 5% glycerol; MST: 50 mM Tris pH 8, 200 mM NaCl, 1 mM DTT, BSA, heparin, 0.05% Tween 20
Conditions in all cases: tags: N-terminal His-eGFP
[1] = target: T1, GFP-9S library array, motif 4 ND …
[2] = target: T2, GFP-9S library array, motif 4 ND …
[3] = target: T3, GFP-9S library array, motif 4 ND …
[4] = target: T4, GFP-9S library array, motif 4 ND …
[5] = target: T5, GFP-9S library array, motif 4 ND …

Binder | Kd ([1]; label: 5' Cy5) [nM] | Kd ([2]; label: 5' Cy5) [nM] | Kd ([3]; label: 5' Cy5) [nM] | Kd ([4]; label: 5' Cy5) [nM] | Kd ([5]; label: 5' Cy5) [nM] | Kd ([1]; label: 5' IRDye 800CW) [nM] | Kd ([2]; label: 5' IRDye 800CW) [nM] | Kd ([3]; label: 5' IRDye 800CW) [nM] | Kd ([4]; label: 5' IRDye 800CW) [nM] | Kd ([5]; label: 5' IRDye 800CW) [nM]
B1 | 140 | 38.5 | 107 | 96.3 | 95.8 |  |  |  |  | 
B2 |  |  |  |  |  | 393 | 76.1 | 52.8 | 158 | 31.1
B3 |  |  |  |  |  | 196 | 59.1 | 173 | 75 | 140
B4 | 181 | 50.4 | 70.1 | 105 | 85.6 |  |  |  |  | 
